{"source": "patent US20250051463A1", "about": "“CD123 ANTIBODY-DRUG CONJUGATES AND METHODS OF USING THE SAME” (ASTRAZENECA AB, priority 2023, published 2025)", "system": "healthy donor BMMC", "assay": "Colony forming unit (CFU) assay", "type": "cell-based, human", "conditions": "24 hours treatment, colonies at 14 days", "procedure": "The potency of HT12-GL ADC (HT12-GL-SG3932) was compared to CD33 Mylotarg ADC and isotype ADC in colony forming unit (CFU) assays. For colony forming unit assays, primary healthy donor samples and AML patient samples were subjected to a dose titration of HT12-GL ADC (HT12-GL-SG3932), Isotype ADC, or Mylotarg for 24 hours. Cells were subsequently mixed in Methocult (StemCell) and seeded in 6-well SmartDish's (StemCell). Colonies were counted at 14 days post-seeding using a STEMvision instrument (StemCell). EC50 values were calculated based on the reduction of colonies following drug treatment compared to control groups.", "data": [{"substance": "Mylotarg: CD33 ADC Mylotarg [reference compound]", "values": [{"measurement": "CFU toxicity in healthy donor BMMC", "value": "toxic"}]}]}
